Source: the RNAGym collection of RNA variant scans (doi:10.7554/elife.80360)

B1: HDV Ribozyme (parent)
chain: GGCCGGCAUGGUCCCAGCCUCCUCGCUGGCGCCGGCUGGGCAACAUUCCGAGGGGACCGUCCCCUCGGUAAUGGCGAAUGGGACCCA

Variants of: B1
Test: self-cleavage, relative activity (ratio to wild type); higher = more cleavage; co-transcriptional
Variant C15G G54C has a self-cleavage of 0.415. C15U C58A gave a self-cleavage of 0.997. With C15G C86A the self-cleavage was 0.712. With C15G C63A the self-cleavage was 0.684. C15U C86G gave a self-cleavage of 0.91. Variant C15U C86A has a self-cleavage of 1.1. Work on C15U C66G yielded a self-cleavage of 0.831. C15U C66U gave a self-cleavage of 1.21. Work on C15U C57U yielded a self-cleavage of 0.864. For C15U C57A, the self-cleavage was 1.03. Variant C15U C26G has a self-cleavage of 0.867. Variant C15U C32A has a self-cleavage of 0.214. For C15U C32U, the self-cleavage was 0.73. C15U C33G showed a self-cleavage of 0.166. C15U C33A gave a self-cleavage of 0.178. In the case of C15G C49A, the self-cleavage is reported as 0.519. Work on C15G C49G yielded a self-cleavage of 0.499. Variant C15G C32G has a self-cleavage of 0.145. In the case of C15G C32A, the self-cleavage is reported as 0.158. C15U A51C gave a self-cleavage of 1.17. Variant C15U A51G has a self-cleavage of 1.07. In the case of C15G C19U, the self-cleavage is reported as 0.0898. Variant C15G C19A has a self-cleavage of 0.0831. C15G G67U gave a self-cleavage of 0.475. Work on C15G G67A yielded a self-cleavage of 0.731. In the case of C15G G67C, the self-cleavage is reported as 0.415. In the case of C15G A43C, the self-cleavage is reported as 0.0875. With C15U C18G the self-cleavage was 0.0594. Variant C15G G38A has a self-cleavage of 0. C15G G38C showed a self-cleavage of 0.0639. C15G G81A gave a self-cleavage of 0.297. Variant C15G G81C has a self-cleavage of 0.375. With C15U C30A the self-cleavage was 0.567. With C15U C30U the self-cleavage was 0.554. Variant C15G C75G has a self-cleavage of 0.192. For C15G C75A, the self-cleavage was 0. Variant C15U C62U has a self-cleavage of 0.764. With C15U C62A the self-cleavage was 1.08. Variant C15G G74C has a self-cleavage of 0.119. C15G U47C gave a self-cleavage of 0.128. C15G U47G gave a self-cleavage of 0.665. For C15G G80C, the self-cleavage was 0.88. Work on C15G G80U yielded a self-cleavage of 0.73. C15G G80A gave a self-cleavage of 0.635. Work on C15G C18G yielded a self-cleavage of 0.0594. C15G C18A showed a self-cleavage of 0.0997. In the case of C15G C18U, the self-cleavage is reported as 0.0852. With C15G U20G the self-cleavage was 0. Work on C15G U20C yielded a self-cleavage of 0.166. Work on C15U C36G yielded a self-cleavage of 0.128. Work on C15G U23G yielded a self-cleavage of 0.415. With C15G G52U the self-cleavage was 0.684. Variant C15G G68U has a self-cleavage of 0.369. With C15G G68A the self-cleavage was 0.525. C15G G82C showed a self-cleavage of 0.111. For C15G U60C, the self-cleavage was 0.7. C15G U60A showed a self-cleavage of 0.185. With C15U A77G the self-cleavage was 1.14. Variant C15G G76A has a self-cleavage of 0.665. For C15A U72C, the self-cleavage was 0.208. Work on C15A U72G yielded a self-cleavage of 0.277. With C15U A16U the self-cleavage was 1.26. For C15G G50A, the self-cleavage was 0.723. For C15G A70U, the self-cleavage was 0.415. C15G A51G showed a self-cleavage of 0.587. C15G A51C showed a self-cleavage of 0.623. With C15U C41U the self-cleavage was 1.05. In the case of C15U C41A, the self-cleavage is reported as 0.962. Work on C15U C24A yielded a self-cleavage of 0.482. For C15U C24G, the self-cleavage was 0. In the case of C15U C21A, the self-cleavage is reported as 0. Variant C15U C21U has a self-cleavage of 0.17. C15G G25U gave a self-cleavage of 0.0354. C15G G25C showed a self-cleavage of 0. Variant C15G C62A has a self-cleavage of 0.554. C15G C62G showed a self-cleavage of 0.237. Work on C15U C19A yielded a self-cleavage of 0.128. In the case of C15G C61U, the self-cleavage is reported as 0.434. C15G C61G gave a self-cleavage of 0.178. With C15G A77C the self-cleavage was 0.128. For C15G A87G, the self-cleavage was 0.543. With C15G C48U the self-cleavage was 0.237. In the case of C15G C48A, the self-cleavage is reported as 0.623. For C15U C64U, the self-cleavage was 0.902. For C15G C36A, the self-cleavage was 0.306. With C15G C36G the self-cleavage was 0. In the case of C15G G55C, the self-cleavage is reported as 0.582. In the case of C15G U79A, the self-cleavage is reported as 0.312. For C15G U46C, the self-cleavage was 0.256. In the case of C15G U46G, the self-cleavage is reported as 0.755. For C15G G53U, the self-cleavage was 0.724. C15G G53C gave a self-cleavage of 0.598. For C15G C33G, the self-cleavage was 0.0489. C15G C33A gave a self-cleavage of 0.0405. C15G C33U gave a self-cleavage of 0.415. C15U A87U showed a self-cleavage of 0.993. C15U A87G gave a self-cleavage of 1.05. In the case of C15U C85G, the self-cleavage is reported as 0.831. For C15G C44U, the self-cleavage was 0.434. C15G C44A gave a self-cleavage of 0.237. With C15U A78U the self-cleavage was 0.185. Work on C15G C66G yielded a self-cleavage of 0.475. For C15G C66A, the self-cleavage was 0.665. C15U A45G gave a self-cleavage of 0.8. Variant C15U A45U has a self-cleavage of 0.831. In the case of C15G C41A, the self-cleavage is reported as 0.529. Work on C15G C41U yielded a self-cleavage of 0.277. Work on C15U C44A yielded a self-cleavage of 0.684. C15U C44G gave a self-cleavage of 0.214. In the case of C15G G28A, the self-cleavage is reported as 0.0627. With C15G G17A the self-cleavage was 0.133. Work on C15G G17C yielded a self-cleavage of 0.0875. With C15U C49A the self-cleavage was 0.623. Work on C15U A71C yielded a self-cleavage of 0.467. C15U A71G gave a self-cleavage of 1.14. Variant C15G U69A has a self-cleavage of 0.604. In the case of C15G U69G, the self-cleavage is reported as 0.256. With C15G C30A the self-cleavage was 0.147. C15G C30U showed a self-cleavage of 0.145. C15G C84U gave a self-cleavage of 0.302. Variant C15G C84G has a self-cleavage of 0.222. Work on C15U C63A yielded a self-cleavage of 1.03. In the case of C15U C63G, the self-cleavage is reported as 0.776. With C15G C85A the self-cleavage was 0.748. Variant C15U A42G has a self-cleavage of 0.246. Work on C15U A42C yielded a self-cleavage of 0.161. With C15U A42U the self-cleavage was 0.322. For C15U C22A, the self-cleavage was 0.113. C15U C22U showed a self-cleavage of 0.35. With C15G G29U the self-cleavage was 0. With C15G C26A the self-cleavage was 0.332. C15G C26G gave a self-cleavage of 0.431. C15G C26U gave a self-cleavage of 0.623. For C15G C64G, the self-cleavage was 0.415. For C15G C64A, the self-cleavage was 0.538. With C15G G31U the self-cleavage was 0.135. For C15G G31C, the self-cleavage was 0.178. Work on C15G A71C yielded a self-cleavage of 0.222. With C15G A71U the self-cleavage was 0.489. In the case of C15U A70C, the self-cleavage is reported as 0.776. C15U A70G showed a self-cleavage of 1.07. With C15A U79C the self-cleavage was 0.326. C15G C58U showed a self-cleavage of 0.482. C15U A56C showed a self-cleavage of 1.02. Work on C15U A56U yielded a self-cleavage of 0.91. Variant C15G G34A has a self-cleavage of 0.237. In the case of C15G C22U, the self-cleavage is reported as 0.222. For C15G A16C, the self-cleavage was 0.369. Work on C15G A45G yielded a self-cleavage of 0.665. With C15G A45C the self-cleavage was 0.217. Work on C15G G39A yielded a self-cleavage of 0.341. In the case of C15G G39C, the self-cleavage is reported as 0.0723. For C15U C84A, the self-cleavage was 0.81. In the case of C15G U65A, the self-cleavage is reported as 0.831. C15G U65C showed a self-cleavage of 0.332. C15G U65G showed a self-cleavage of 0.886. C15G A56C showed a self-cleavage of 0.739. C15G A56U gave a self-cleavage of 0.914. Work on C15U C75G yielded a self-cleavage of 0.0665. Work on C15G U27A yielded a self-cleavage of 0.431. For C15G C24G, the self-cleavage was 0.196. With C15U A43C the self-cleavage was 0.0594. C15U C48U gave a self-cleavage of 0.852. With C15U C48G the self-cleavage was 1.13. Work on C15U C48A yielded a self-cleavage of 1.17. In the case of C15G U72G, the self-cleavage is reported as 0.128. For C15G U72C, the self-cleavage was 0.119.
